From the Immune Epitope Database (IEDB)

Assays:
Test in all cases: IEDB peptide-MHC binding, purified MHC/competitive/radioactivity; ≥ and ≤ were set here for values at or beyond the usual limits of such assays
HLA-A*02:01 = biological target: HLA-A*02:01
HLA-A*02:02 = biological target: HLA-A*02:02
HLA-A*02:03 = biological target: HLA-A*02:03
HLA-A*02:06 = biological target: HLA-A*02:06
HLA-A*68:02 = biological target: HLA-A*68:02
[1] = source organism: Mammarenavirus brazilense
[2] = source organism: Vaccinia virus WR

Sequence | IC50 (HLA-A*02:01; [2]) [nM] | IC50 (HLA-A*02:02; [2]) [nM] | IC50 (HLA-A*02:03; [2]) [nM] | IC50 (HLA-A*02:06; [2]) [nM] | IC50 (HLA-A*68:02; [2]) [nM] | other results
TSLGLLYTV |  |  |  |  |  | IC50 (HLA-A*02:01; [1]): 115 nM; IC50 (HLA-A*02:02; [1]): 934 nM; IC50 (HLA-A*02:03; [1]): 405 nM; IC50 (HLA-A*02:06; [1]): 4.2 nM; IC50 (HLA-A*68:02; [1]): 13 nM
SMYGKAFNHA | 9.7 | 6.6 | 0.93 | 4 | 163 | 
IMFMLIFNV | 12 | 0.15 | 10 | 13 | 13 | 
HSLPRCWLV |  |  |  |  |  | IC50 (HLA-A*02:01; [1]): 2130 nM; IC50 (HLA-A*02:02; [1]): 655 nM; IC50 (HLA-A*02:03; [1]): 147 nM; IC50 (HLA-A*02:06; [1]): 323 nM; IC50 (HLA-A*68:02; [1]): 660 nM
FLLPSLATV |  |  |  |  |  | IC50 (HLA-A*02:01; source organism: SARS-CoV1): 0.34 nM; IC50 (HLA-A*02:02; source organism: SARS-CoV1): 0.13 nM; IC50 (HLA-A*02:03; source organism: SARS-CoV1): 0.2 nM; IC50 (HLA-A*02:06; source organism: SARS-CoV1): 0.41 nM; IC50 (HLA-A*68:02; source organism: SARS-CoV1): 16 nM
TLGVYDYLV |  |  |  |  |  | IC50 (HLA-A*02:01; source organism: SARS-CoV1): 2.7 nM; IC50 (HLA-A*02:02; source organism: SARS-CoV1): 0.25 nM; IC50 (HLA-A*02:03; source organism: SARS-CoV1): 936 nM; IC50 (HLA-A*02:06; source organism: SARS-CoV1): 75 nM; IC50 (HLA-A*68:02; source organism: SARS-CoV1): 157 nM
WLMWFIISIV |  |  |  |  |  | IC50 (HLA-A*02:01; source organism: SARS-CoV1): 33 nM; IC50 (HLA-A*02:02; source organism: SARS-CoV1): 246 nM; IC50 (HLA-A*02:03; source organism: SARS-CoV1): 4.7 nM; IC50 (HLA-A*02:06; source organism: SARS-CoV1): 107 nM; IC50 (HLA-A*68:02; source organism: SARS-CoV1): 2890 nM
ITTLLNETA | 635 | 414 | 936 | 596 | 70 | 
YIWKSYVHI |  |  |  |  |  | IC50 (HLA-A*02:01; source organism: SARS-CoV1): 24 nM; IC50 (HLA-A*02:02; source organism: SARS-CoV1): 86 nM; IC50 (HLA-A*02:03; source organism: SARS-CoV1): 13 nM; IC50 (HLA-A*02:06; source organism: SARS-CoV1): 8.9 nM; IC50 (HLA-A*68:02; source organism: SARS-CoV1): 104 nM
IIYSKAGNIL | 542 | 8.5 | 110 | 342 | 3920 | 
GIYNCCESNI | 331 | 68 | 140 | 290 | 3800 | 
VMYASALVLL |  |  |  |  |  | IC50 (HLA-A*02:01; source organism: SARS-CoV1): 5.7 nM; IC50 (HLA-A*02:02; source organism: SARS-CoV1): 0.25 nM; IC50 (HLA-A*02:03; source organism: SARS-CoV1): 4 nM; IC50 (HLA-A*02:06; source organism: SARS-CoV1): 41 nM; IC50 (HLA-A*68:02; source organism: SARS-CoV1): 756 nM
YIILFILFFA | 234 | 263 | 674 | 1050 | 270 | 
RTMPNESRV | 1510 | 140 | 100 | 155 | 14 | 
IVNCLSLSNL | 1930 | 338 | 128 | 1280 | 3590 | 
VISVIFYFI | 331 | 1.4 | 729 | 497 | 7.6 | 
YLGPRVCWL | 2.2 | 0.9 | 3.4 | 23 | 514 | 
